This passage reports FRET efficiency and fold co-immunoprecipitation against WT-FRNK results from paper PMC6800154.

One assay addresses YFP-FAK (mouse) (UniProt P34152). In words: FRET or BRET. (In general: Bioluminescence resonance energy transfer reports proximity on the nanometre scale.)
Assay [1] deals with Focal adhesion kinase (FAK), endogenous in rat aortic smooth muscle cells (rat (endogenous in RASMs)) (UniProt O35346). Put plainly: co-IP.
Sequence of UniProt O35346 (O35346 whole entry): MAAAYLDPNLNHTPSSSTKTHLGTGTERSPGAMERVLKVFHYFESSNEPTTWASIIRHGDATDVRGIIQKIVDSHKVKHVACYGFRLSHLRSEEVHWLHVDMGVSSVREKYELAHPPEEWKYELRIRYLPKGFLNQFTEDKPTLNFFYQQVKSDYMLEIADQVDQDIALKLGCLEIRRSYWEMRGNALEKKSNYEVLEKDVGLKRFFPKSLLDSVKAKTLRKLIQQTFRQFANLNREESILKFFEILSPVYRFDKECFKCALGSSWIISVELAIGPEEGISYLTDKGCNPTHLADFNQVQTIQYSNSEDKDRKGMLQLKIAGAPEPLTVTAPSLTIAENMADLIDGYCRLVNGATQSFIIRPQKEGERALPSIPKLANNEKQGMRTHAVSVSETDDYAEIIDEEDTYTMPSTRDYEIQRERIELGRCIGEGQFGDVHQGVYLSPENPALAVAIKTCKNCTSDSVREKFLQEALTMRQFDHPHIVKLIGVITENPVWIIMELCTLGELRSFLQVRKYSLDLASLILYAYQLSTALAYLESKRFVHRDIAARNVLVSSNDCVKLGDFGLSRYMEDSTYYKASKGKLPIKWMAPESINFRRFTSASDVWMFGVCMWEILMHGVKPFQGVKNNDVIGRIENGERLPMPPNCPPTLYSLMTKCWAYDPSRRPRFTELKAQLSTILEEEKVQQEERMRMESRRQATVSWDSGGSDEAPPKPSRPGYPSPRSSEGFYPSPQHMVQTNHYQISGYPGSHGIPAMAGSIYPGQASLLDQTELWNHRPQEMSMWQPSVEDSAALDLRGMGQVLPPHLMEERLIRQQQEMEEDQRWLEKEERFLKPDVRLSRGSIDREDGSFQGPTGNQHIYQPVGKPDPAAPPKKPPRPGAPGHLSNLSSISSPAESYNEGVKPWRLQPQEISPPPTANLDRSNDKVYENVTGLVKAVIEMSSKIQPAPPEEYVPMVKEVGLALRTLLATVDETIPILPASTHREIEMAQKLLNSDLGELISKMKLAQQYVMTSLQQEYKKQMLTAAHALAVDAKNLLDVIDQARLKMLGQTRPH

Sequence of UniProt P34152 (P34152 whole entry): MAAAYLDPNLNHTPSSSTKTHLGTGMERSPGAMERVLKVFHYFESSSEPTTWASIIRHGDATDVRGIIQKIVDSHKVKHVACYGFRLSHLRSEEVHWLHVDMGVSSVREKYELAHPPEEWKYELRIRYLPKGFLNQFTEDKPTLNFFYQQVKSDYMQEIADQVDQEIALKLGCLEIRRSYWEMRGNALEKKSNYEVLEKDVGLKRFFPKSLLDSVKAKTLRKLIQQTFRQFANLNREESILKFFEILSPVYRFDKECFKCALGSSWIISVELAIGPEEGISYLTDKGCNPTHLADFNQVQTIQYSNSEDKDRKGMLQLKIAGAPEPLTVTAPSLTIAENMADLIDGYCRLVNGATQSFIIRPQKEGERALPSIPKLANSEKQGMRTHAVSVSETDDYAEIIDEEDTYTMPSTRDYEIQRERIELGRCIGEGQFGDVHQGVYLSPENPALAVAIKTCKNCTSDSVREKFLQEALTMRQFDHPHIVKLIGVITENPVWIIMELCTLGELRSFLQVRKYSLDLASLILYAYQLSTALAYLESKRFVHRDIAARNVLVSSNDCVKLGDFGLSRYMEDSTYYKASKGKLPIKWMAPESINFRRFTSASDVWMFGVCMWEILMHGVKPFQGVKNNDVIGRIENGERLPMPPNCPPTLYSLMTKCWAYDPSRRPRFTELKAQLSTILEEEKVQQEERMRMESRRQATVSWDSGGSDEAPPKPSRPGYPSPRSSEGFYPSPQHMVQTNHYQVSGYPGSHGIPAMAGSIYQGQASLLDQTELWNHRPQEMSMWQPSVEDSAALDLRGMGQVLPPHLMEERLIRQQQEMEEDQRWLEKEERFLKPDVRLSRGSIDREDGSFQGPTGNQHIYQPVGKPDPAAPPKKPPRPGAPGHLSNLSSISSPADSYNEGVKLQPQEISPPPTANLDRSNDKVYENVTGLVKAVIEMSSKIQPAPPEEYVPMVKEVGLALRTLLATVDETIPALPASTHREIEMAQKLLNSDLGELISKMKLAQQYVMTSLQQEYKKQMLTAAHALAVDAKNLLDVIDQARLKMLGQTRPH

As to “cyan fluorescent protein (CFP) S217A-FRNK (natural protein)”, the FRET efficiency with YFP-FAK (mouse) was determined as 53%. The same substance showed a fold co-immunoprecipitation against WT-FRNK in assay [1] of 5 fold.
